Reference: patent US20250066819

Legend:
Experiment in all cases: cell_activity
[1] = tested on: Type I-F3a CAST (TniQ-Cascade + TnsABC) (Vibrio cholerae HE-45)
[2] = tested on: Type I-F3a CAST with Cas6 R117A Cas6 R117A (Vibrio cholerae HE-45); settings: below detection
[3] = tested on: Type I-F3a CAST with Cas6 R121A Cas6 R121A (Vibrio cholerae HE-45); settings: below detection
[4] = tested on: Type I-F3a CAST with Cas6 R125A Cas6 R125A (Vibrio cholerae HE-45); settings: below detection

Substance | relative transposition efficiency (fold of native) ([1]; printed as ~10-3-fold less efficient than native crRNA) | activity ([1]; transposition efficiency of viable recipients (+/- 0.2), E. coli, conjugation assay, PAM not stated) [%] | activity [2] [cfu] | activity [3] [cfu] | activity [4] [cfu]
lacZ crRNA, canonical type I-E repeat ; lacZ target | 0.001 |  |  |  | 
lacZ crRNA, native I-F3a CAST repeat ; lacZ target |  | 1.4 | < 1e-07 | < 1e-07 | < 1e-07
